Assay results taken from paper PMC3884069 (Cellular and molecular life sciences : CMLS, 2012).

B1: HLA-G2 (membrane-bound HLA-G isoform, α1–α3 domains) (natural protein, human, UniProt P17693-2 25-246, looked up)
MHC heavy: GSHSMRYFSAAVSRPGRGEPRFIAMGYVDDTQFVRFDSDSACPRMEPRAPWVEQEGPEYWEEETRNTKAHAQTDRMNLQTLRGYYNQSEANPPKTHVTHHPVFDYEATLRCWALGFYPAEIILTWQRDGEDQTQDVELVETRPAGDGTFQKWAAVVVPSGEEQRYTCHVQHEGLPEPLMLRWKQSSLPTIPIMGIVAGLVVLAAVVTGAAVAAVLWRKKSSD
B2: HLA-G4 (membrane-bound HLA-G isoform, α1–α2 domains) (natural protein, human, UniProt P17693-4 25-246, looked up)
MHC heavy: GSHSMRYFSAAVSRPGRGEPRFIAMGYVDDTQFVRFDSDSACPRMEPRAPWVEQEGPEYWEEETRNTKAHAQTDRMNLQTLRGYYNQSEASSHTLQWMIGCDLGSDGRLLRGYEQYAYDGKDYLALNEDLRSWTAADTAAQISKRKCEAANVAEQRRAYLEGTCVEWLHRYLENGKEMLQRAKQSSLPTIPIMGIVAGLVVLAAVVTGAAVAAVLWRKKSSD

Columns and labels:
[1] = biological target: HLA-G6 (soluble HLA-G isoform, α1–α3 domains) (human) (UniProt P17693); assay: non-reducing SDS-PAGE and western blot
[2] = biological target: the molecule itself; assay: non-reducing SDS-PAGE and western blot

Molecule	stoichiometry N [1]	stoichiometry N [2]
HLA-G6 (soluble HLA-G isoform, α1–α3 domains) (from UniProt P17693-6 25-227) (natural protein)	2	–
B1	–	2
B2	–	2
